Here are results for one molecule from article PMC6911170.

For the series, the target named is T1, GST-Zc3h10 full length (UniProt Q8R205 1-435).
T1 sequence: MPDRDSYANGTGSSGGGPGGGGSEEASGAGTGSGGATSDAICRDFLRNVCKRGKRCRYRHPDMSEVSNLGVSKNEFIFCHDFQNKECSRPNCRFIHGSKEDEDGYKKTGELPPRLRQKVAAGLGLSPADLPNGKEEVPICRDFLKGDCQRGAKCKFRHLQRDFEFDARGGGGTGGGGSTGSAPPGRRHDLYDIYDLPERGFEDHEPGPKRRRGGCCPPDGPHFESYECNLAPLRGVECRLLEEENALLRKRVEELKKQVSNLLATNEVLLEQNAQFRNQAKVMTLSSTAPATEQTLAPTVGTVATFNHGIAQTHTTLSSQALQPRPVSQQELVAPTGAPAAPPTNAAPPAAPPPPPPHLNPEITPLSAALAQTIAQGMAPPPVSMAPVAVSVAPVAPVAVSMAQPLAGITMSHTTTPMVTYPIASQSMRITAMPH
Nature of the series: EMSA.

B1: -4.6 kb UCP1 probe (dsDNA)
DNA 1: TTTACCAAGTCCTTTCCACCGTGCAGGACGCACCATTCGGCAGCTTCCAGTTGTCTGGGAACTTCCAGTTGAAGGGATGA
DNA 2: TCATCCCTTCAACTGGAAGTTCCCAGACAACTGGAAGCTGCCGAATGGTGCGTCCTGCACGGTGGAAAGGACTTGGTAAA
In the case of B1, the binding result is on record as “binds”.
